# Data from publication PMC10418629, “Functional Study of Amorpha fruticosa WRKY20 Gene in Response to Drought Stress”.
# B1: W-box probe (Biotin-Pr) (dsDNA)
# DNA 1: GGAACTTGACCTTGACCTTAGGGCTGCAGGAATTCG
# DNA 2: CGAATTCCTGCAGCCCCTAAGGTCAAGGTCAAGTCC
# Target: T1, GST-AfWRKY20 (Amorpha fruticosa, UniProt A0A8K1R274 1-585)
# T1 sequence: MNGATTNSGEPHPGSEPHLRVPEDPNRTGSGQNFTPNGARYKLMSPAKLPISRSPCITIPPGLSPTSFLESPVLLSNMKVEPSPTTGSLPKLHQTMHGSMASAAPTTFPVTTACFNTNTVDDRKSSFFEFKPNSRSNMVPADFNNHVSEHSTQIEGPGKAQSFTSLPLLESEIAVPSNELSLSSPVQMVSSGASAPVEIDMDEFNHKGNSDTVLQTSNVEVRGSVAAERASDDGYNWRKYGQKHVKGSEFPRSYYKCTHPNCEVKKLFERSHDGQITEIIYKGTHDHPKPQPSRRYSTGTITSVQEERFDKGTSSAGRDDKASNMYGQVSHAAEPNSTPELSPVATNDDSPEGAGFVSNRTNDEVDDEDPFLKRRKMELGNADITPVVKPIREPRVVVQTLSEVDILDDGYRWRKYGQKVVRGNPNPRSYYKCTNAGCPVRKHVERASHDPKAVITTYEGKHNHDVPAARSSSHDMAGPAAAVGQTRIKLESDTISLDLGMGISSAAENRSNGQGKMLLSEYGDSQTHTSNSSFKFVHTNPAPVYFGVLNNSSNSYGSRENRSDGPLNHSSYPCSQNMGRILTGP
# Experiment: EMSA; unlabeled Cold-Pr competitor weakened the shift; EMSA kit (Biyuntian/Beyotime) per instructions; buffer, salt, pH and temperature not stated
# Details: protein: recombinant; tags: GST; blunt as designed; printed strands are not exact complements (F has GGAAC / GGGC, complement of R has GGAC / GGGGC; possible misprint)
binder,measurement,value
B1,binding result,binds
